This is an account of results in paper PMC11079029, “Intramolecular autoinhibition regulates the selectivity of PRPF40A tandem WW domains for proline-rich motifs” (Nature Communications, 2024).

One may read the stoichiometry N as the number of molecules, sites or subunits per partner or assembly.

Where “and” joins values, the source holds several entries; their conditions need not be identical. Equal entries are not always repeated. Some results are limits rather than exact numbers.

What all share (details): both partners purified
Assay [1] concerns the target T1, PRPF40A WW12 (tandem WW domains, residues 141-236) (human, UniProt O75400 141-236).
T1 construct: pETM11 vector (NcoI/KpnI); also called PRPF40A WW tandem; isolated WW domains; source: E. coli BL21(DE3), purified (Ni-NTA, TEV cleavage, reverse Ni-NTA, SEC); not shown: His6, N-terminal, cleaved
Description: ITC; MicroCal PEAQ-ITC, 25 °C, 20 mM sodium phosphate pH 6.5, 100 mM NaCl; GB1-polyproline peptides in the cell, WW12 in the syringe (N sites >1: more than one WW tandem on one peptide); one-site model; apparent. (In ITC the heat of successive injections is recorded.)

In assay [2] the target is T2, PRPF40A WW12 (tandem WW domains, residues 141-236) (human, UniProt O75400 141-236).
T2 construct: A few vector residues probably remain at the N-terminus after TEV cleavage (pETM11, NcoI site); 15N-labelled in the NMR experiments; also called PRPF40A WW tandem; WW12 wt; source: E. coli BL21(DE3), purified (Ni-NTA, TEV digestion, reverse Ni-NTA, SEC); not shown: His6, N-terminal, cleaved
Description: ITC; GB1-peptide or GB1-SF1 construct in the cell, PRPF40A WW12 in the syringe (as shown in Supplementary Figures 7 and 16A); 25 °C, 20 mM sodium phosphate pH 6.5, 100 mM NaCl; one-site binding model; at least duplicates; affinities apparent.

Assay [3] deals with T3, PRPF40A WW12 (tandem WW domains, residues 141-236) (human, UniProt O75400 141-236).
T3 construct: pETM11 vector, NcoI/KpnI; 15N or 13C,15N labelled for NMR; also called PRPF40A WW tandem; PRPF40A tandem WW domains; source: E. coli BL21(DE3), purified (Ni-NTA, TEV, reverse Ni-NTA, SEC); not shown: His6, N-terminal, cleaved
Description: ITC; GB1-tagged SF1/SF3A1 constructs in the syringe and the WW tandem in the cell; 25 °C, 20 mM sodium phosphate pH 6.5, 100 mM NaCl; one-site model; apparent affinities.

Assay [4] addresses T2, PRPF40A WW12 (tandem WW domains, …). Description: ITC; PRPF40A construct (WW12, N-ext-WW12 or its mutant) in the cell, GB1-SF1 or GB1-SF3A1 construct in the syringe (as shown in Supplementary Figures 16 and 21); 25 °C, 20 mM sodium phosphate pH 6.5, 100 mM NaCl; one-site binding model; at least duplicates; affinities apparent.
The target of assay [5] is T1, PRPF40A WW12 (tandem WW domains, …). The assay is described as follows: ITC; MicroCal PEAQ-ITC, 25 °C, 20 mM sodium phosphate pH 6.5, 100 mM NaCl; PRPF40A constructs and GB1-tagged SF1 16-mer peptides; who was in the syringe is not stated for these panels (Fig. 2B, Fig. 5C); one-site model.

B1: GB1-polyproline peptide P19 (peptide)
chain: GAMSGSPPPPPPPPPPPPPPPPPPPSGSN
notes: common N-terminal residues after the TEV site (TEVsite-GAMSGS-peptide-SGSN); 19 consecutive prolines; common C-terminal residues; pET24 vector with 6xHis, GB1 and TEV site as N-terminal cassette, not cleaved; also called polyproline length 19; source: E. coli BL21(DE3), purified (Ni-NTA, SEC); not shown: GB1, N-terminal, kept
In the case of B1, the Kd in assay [1] is 7.02 µM and 6.5 µM and 6.76 µM.

B2: GB1-SF1 Pro D (residues 594-639) (domain or fragment, UniProt Q15637 594-639, looked up)
chain: GMMYAPPPPPPPPMDPSNFVTMMGMGVAGMPPFGMPPAPPPPPPQN
notes: splicing factor 1 (SF1), residues 594-639 of the proline-rich C-terminal region; His6-GB1-TEV site cassette of the pET24 vector, not cleaved; source: E. coli BL21(DE3), purified (Ni-NTA, SEC); not shown: GB1, N-terminal, kept
On to B2, for which the Kd in assay [2] is 10.1 ± 4.2 µM.

B3: GB1-tagged SF1 Pro D (594-639) (domain or fragment, UniProt Q15637 594-639, looked up)
chain: B2 chain
notes: SF1 residues 594-639; also called the very C-terminal region; source: E. coli BL21(DE3), purified (Ni-NTA, SEC), GB1 tag kept; not shown: GB1, N-terminal, kept
Turning to B3, the Kd in assay [3] is roughly 10 µM.

B4: GB1-SF1 Pro ABCD (residues 410-639) (domain or fragment, UniProt Q15637 410-639, looked up)
chain: GHPMQHNPNGPPPPWMQPPPPPMNQGPHPPGHHGPPPMDQYLGSTPVGSGVYRLHQGKGMMPPPPMGMMPPPPPPPSGQPPPPPSGPLPPWQQQQQQPPPPPPPSSSMASSTPLPWQQNTTTTTTSAGTGSIPPWQQQQAAAAASPGAPQMQGNPTMVPLPPGVQPPLPPGAPPPPPPPPPGSAGMMYAPPPPPPPPMDPSNFVTMMGMGVAGMPPFGMPPAPPPPPPQN
notes: splicing factor 1 (SF1), residues 410-639, the complete proline-rich C-terminal region; His6-GB1-TEV site cassette of the pET24 vector, not cleaved; source: E. coli BL21(DE3), purified (Ni-NTA, SEC); not shown: GB1, N-terminal, kept
Consider B4, for which the “stoichiometry N” value in assay [4] worked out at 0.28 ± 0.05 sites.

B5: GB1-tagged SF1 Pro ABCD (410-639) (domain or fragment, UniProt Q15637 410-639, looked up)
chain: B4 chain
notes: SF1 residues 410-639, the whole proline-rich C-terminal region; also called complete C-terminal region of SF1; source: E. coli BL21(DE3), purified (Ni-NTA, SEC), GB1 tag kept; not shown: GB1, N-terminal, kept
Consider B5, for which, in assay [3], the “stoichiometry N” value was 3 PRPF40A tandems per SF1 construct.

PPPPPPPPPPPPPPPPPPPPPP: in assay [2], the Kd was 9.29 ± 0.88 µM.

B6: GB1-polyproline peptide P29 (peptide)
chain: GAMSGSPPPPPPPPPPPPPPPPPPPPPPPPPPPPPSGSN
notes: common N-terminal residues after the TEV site (TEVsite-GAMSGS-peptide-SGSN); 29 consecutive prolines; common C-terminal residues; pET24 vector with 6xHis, GB1 and TEV site as N-terminal cassette, not cleaved; also called polyproline length 29; source: E. coli BL21(DE3), purified (Ni-NTA, SEC); not shown: GB1, N-terminal, kept
Regarding B6, the Kd in assay [1] is 7.3 µM and 11 µM and 9.15 µM.

B7: GB1-polyproline peptide P8 (peptide)
chain: GAMSGSPPPPPPPPSGSN
notes: common N-terminal residues after the TEV site (TEVsite-GAMSGS-peptide-SGSN); 8 consecutive prolines; common C-terminal residues; pET24 vector with 6xHis, GB1 and TEV site as N-terminal cassette, not cleaved; also called polyproline length 8; source: E. coli BL21(DE3), purified (Ni-NTA, SEC); not shown: GB1, N-terminal, kept
In the case of B7, the Kd in assay [1] was greater than 50 µM.

B8: GB1-polyproline peptide P22 (peptide)
chain: GAMSGSPPPPPPPPPPPPPPPPPPPPPPSGSN
notes: common N-terminal residues after the TEV site (TEVsite-GAMSGS-peptide-SGSN); 22 consecutive prolines; common C-terminal residues; pET24 vector with 6xHis, GB1 and TEV site as N-terminal cassette, not cleaved; also called polyproline length 22; source: E. coli BL21(DE3), purified (Ni-NTA, SEC); not shown: GB1, N-terminal, kept
With B8, the Kd in assay [1] is 8.84 µM and 9.73 µM and 9.29 µM.

Turning to PPPPPPPPPPPPPPPP [GB1-polyproline peptide P16], the Kd in assay [2] is 3.35 ± 0.27 µM.

B9: GB1-SF3A1 C-ter Pro (residues 552-683) (domain or fragment, UniProt Q15459 552-683, looked up)
chain: EIPQQPPPPSSATNIPSSAPPITSVPRPPTMPPPVRTTVVSAVPVMPRPPMASVVRLPPGSVIAPMPPIIHAPRINVVPMPPSAPPIMAPRPPPMIVPTAFVPAPPVAPVPAPAPMPPVHPPPPMEDEPTSK
notes: His6-GB1-TEV site cassette of the pET24 vector, not cleaved; source: E. coli BL21(DE3), purified (Ni-NTA, SEC); not shown: GB1, N-terminal, kept
Consider B9, for which the “stoichiometry N” value in assay [4] came out at 0.27 ± 0.07 sites.

B10: GB1-SF1 Pro C (residues 539-594) (domain or fragment, UniProt Q15637 539-594, looked up)
chain: GSIPPWQQQQAAAAASPGAPQMQGNPTMVPLPPGVQPPLPPGAPPPPPPPPPGSAG
notes: splicing factor 1 (SF1), residues 539-594 of the proline-rich C-terminal region (holds the WWbs motif 575-590); His6-GB1-TEV site cassette of the pET24 vector, not cleaved; source: E. coli BL21(DE3), purified (Ni-NTA, SEC); not shown: GB1, N-terminal, kept
Consider B10, for which the Kd in assay [2] came to 2.02 ± 0.09 µM.

B11: GB1-SF1(425-440) 16-mer peptide (peptide)
chain: GAMSGSMQPPPPPMNQGPHPPGSGSN
notes: common N-terminal residues after the TEV site (TEVsite-GAMSGS-peptide-SGSN); SF1 (splicing factor 1) residues 425-440; common C-terminal residues; pET24 vector with 6xHis, GB1 and TEV site as N-terminal cassette, not cleaved; source: E. coli BL21(DE3), purified (Ni-NTA, SEC); not shown: GB1, N-terminal, kept
For B11, the Kd in assay [5] is 15.9 µM and 21.8 µM and 22.9 µM and 20.2 µM.
